Measurements: patent US20230120736A1, “ANTI-CD98 ANTIBODIES AND ANTIBODY DRUG CONJUGATES” (AbbVie Inc., priority 2016, published 2023)

Columns and labels:
human CD98 ECD = target: T1, human CD98 ECD (Homo sapiens, UniProt P08195); experiment: Biacore surface plasmon resonance binding kinetics (anti-Fc capture); conditions: huCD98 ECD
T1 construct: Human CD98 ECD with C-terminal His-tag
T1 sequence (P08195 with tags, fused parts or gaps): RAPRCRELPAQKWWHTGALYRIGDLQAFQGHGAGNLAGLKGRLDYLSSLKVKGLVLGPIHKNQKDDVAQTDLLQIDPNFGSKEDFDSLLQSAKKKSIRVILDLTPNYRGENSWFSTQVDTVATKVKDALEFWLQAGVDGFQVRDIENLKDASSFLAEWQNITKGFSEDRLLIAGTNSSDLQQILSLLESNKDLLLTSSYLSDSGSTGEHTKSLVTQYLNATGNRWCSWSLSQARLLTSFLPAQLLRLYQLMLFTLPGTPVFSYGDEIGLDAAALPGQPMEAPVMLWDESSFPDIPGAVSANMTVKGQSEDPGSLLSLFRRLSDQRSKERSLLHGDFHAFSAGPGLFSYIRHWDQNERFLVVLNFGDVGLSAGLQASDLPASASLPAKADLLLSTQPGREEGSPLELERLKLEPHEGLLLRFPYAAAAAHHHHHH
Procedure: (§1) The binding kinetics of these purified mouse and rat monoclonal anti-CD98 antibodies for purified recombinant CD98 protein (extracellular domain, ECD) were determined by surface plasmon resonance-based measurements made on Biacore T100/T200 instruments (GE Healthcare, Piscataway, N.J.) at 25° C. using an anti-Fc capture assay approach. Binding kinetic measurements were made in the assay buffer HBS-EP+: 10 mM Hepes, pH 7.4, 150 mM NaCl, 3 mM EDTA, 0.05% Tween 20). For example, approximately 8000 RU of anti-Fc (species specific) polyclonal antibody (Thermo Fisher Scientific Inc., Rockford, Ill.) diluted in 10 mM sodium acetate (pH 4.5) was directly immobilized across a CM5 research grade biosensor chip using a standard amine coupling kit according to manufacturer's instructions and procedures at 25 μg/ml. Unreacted moieties on the biosensor surface were blocked with ethanolamine. The test antibody to be captured as a ligand was diluted in running buffer to ˜0.5 μg/mL and injected over anti-Fc surface at a flow rate of 10 μL/min. CD98 binding and dissociation were observed under a continuous flow rate of 80 μL/min. Human and cynomolgus monkey CD98 ECDs, both with a C-terminal His-tag, are used for this study (Table 3). After each cycle the anti-Fc capture surface was regenerated using 10 mM Glycine-HCl, pH 1.5. During the assay, all measurements were referenced against the capture surface alone (i.e., with no captured test antibody) and buffer-only injections (no antigen) were used for double referencing. For kinetic analysis, rate equations derived from the 1:1 Langmuir binding model were fitted simultaneously, globally and with mass transfer term included to multiple referenced antigen binding curves using Biacore T100/T200 Evaluation software.
(§2) The in vitro binding activities of the recombinant anti-CD98 chimeric mAbs were measured against both recombinant CD98 extracellular domain proteins (ECDs) and CD98-expressing cells. Briefly, binding kinetics of anti-CD98 chimera mAbs for human and cynomolgus CD98 ECDs were determined by surface plasmon resonance-based measurements as described in Example 4. Table 10 reported the association and dissociation rate constants for CD98 binding, ka (M^−1 s^−1) and kd (s^−1), and the equilibrium dissociation constant KD (M) of the interaction between antibodies and the target antigen. Binding of anti-CD98 chimera mAbs for CD98 on cell surface was evaluated by flow cytometry against CHO-K1 cell line stably transfected to express human CD98 and 3T12 cell line stably transfected to express cynomolgus monkey CD98.
(§3) The binding kinetics of the recombinant anti-CD98 chimeric antibodies for purified recombinant CD98 protein (extracellular domain, ECD) were determined by surface plasmon resonance-based measurements, as described in the Example 4.

[1] = tested on: cynomolgus monkey CD98 ECD; experiment: as above; conditions: cyCD98 ECD
Procedure: as §1, §2, §3

human CD98 = target: T2, human CD98 (Homo sapiens, UniProt P08195); experiment: Binding of humanized antibodies to human CD98; conditions: humanized variants of chAb3 and chAb15
T2 sequence (P08195 1-630 isoform P08195-1): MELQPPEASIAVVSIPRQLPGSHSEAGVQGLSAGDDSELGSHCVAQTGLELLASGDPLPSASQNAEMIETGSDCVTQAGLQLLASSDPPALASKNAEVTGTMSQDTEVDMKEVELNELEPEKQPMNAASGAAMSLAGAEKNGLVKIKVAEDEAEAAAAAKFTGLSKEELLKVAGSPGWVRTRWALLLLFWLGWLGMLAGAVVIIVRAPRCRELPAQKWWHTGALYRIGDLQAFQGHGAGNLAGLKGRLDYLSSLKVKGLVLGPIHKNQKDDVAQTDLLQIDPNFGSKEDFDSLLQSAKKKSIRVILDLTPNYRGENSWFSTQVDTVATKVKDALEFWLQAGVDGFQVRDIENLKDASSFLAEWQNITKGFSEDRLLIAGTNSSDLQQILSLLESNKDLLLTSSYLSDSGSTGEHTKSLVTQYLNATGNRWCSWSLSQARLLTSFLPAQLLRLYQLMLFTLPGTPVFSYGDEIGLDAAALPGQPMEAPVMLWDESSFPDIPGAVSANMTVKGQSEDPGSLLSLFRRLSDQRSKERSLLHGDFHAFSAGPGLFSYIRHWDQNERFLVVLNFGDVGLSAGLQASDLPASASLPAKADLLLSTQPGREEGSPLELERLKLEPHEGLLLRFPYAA

[2] = Conjugation of anti-CD98 mAbs with Bcl-xL inhibitor synthons (precipitation, DAR, recovery, aggregation); conditions: mAb conjugated with Bcl-xL inhibitor synthon CZ, Method A
Procedure: Method A. A solution of BOND-BREAKER tris(2-carboxyethyl)phosphine (TCEP) solution (10 mM, 0.017 mL) was added to a solution of antibody (10 mg/mL, […]) preheated to 37° C. The reaction mixture was kept at 37° C. for 1 hour. The solution of reduced antibody was added to a solution of synthon (3.3 mM, 0.160 mL in DMSO) and gently mixed for 30 minutes. The reaction solution was loaded onto a desalting column (PD10, washed with DPBS 3x before use), followed by DPBS (1.6 mL) and eluted with additional DPBS (3 mL). The purified ADC solution was filtered through a 0.2 micron, low protein-binding 13 mm syringe-filter and stored at 4° C.
Method E. A solution of BOND-BREAKER tris(2-carboxyethyl)phosphine (TCEP) solution (10 mM, 0.017 mL) was added to the solution of antibody (10 mg/mL, 1 mL) at room temperature. The reaction mixture was heated to 37° C. for 75 minutes. The solution of reduced antibody cooled to room temperature and was added to a solution of synthon (10 mM, 0.040 mL in DMSO) followed by addition of boric buffer (0.1 mL, 1M, pH 8). The reaction solution was let to stand for 3 days at room temperature, loaded onto a desalting column (PD10, washed with DPBS 3×5 mL before use), followed by DPBS (1.6 mL) and eluted with additional DPBS (3 mL). The purified ADC solution was filtered through a 0.2 micron, low protein-binding 13 mm syringe-filter and stored at 4° C.

Chain of cynomolgus monkey CD98 ECD (as listed by the source): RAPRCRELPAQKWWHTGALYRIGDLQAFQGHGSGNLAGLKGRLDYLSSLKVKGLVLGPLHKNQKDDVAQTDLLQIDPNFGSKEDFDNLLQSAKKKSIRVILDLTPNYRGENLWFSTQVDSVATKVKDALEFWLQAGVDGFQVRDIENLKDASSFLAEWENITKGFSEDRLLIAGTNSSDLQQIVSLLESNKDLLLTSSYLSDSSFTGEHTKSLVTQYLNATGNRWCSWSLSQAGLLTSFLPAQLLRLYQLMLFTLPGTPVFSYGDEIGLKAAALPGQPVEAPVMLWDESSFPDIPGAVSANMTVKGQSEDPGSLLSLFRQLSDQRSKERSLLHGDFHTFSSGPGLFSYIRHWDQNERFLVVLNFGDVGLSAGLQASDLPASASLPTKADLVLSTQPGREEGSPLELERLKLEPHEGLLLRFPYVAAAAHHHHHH

B1: huAb15v1 (antibody, V domains shown)
VH: EVQLVESGGGVVQPGRSLRLSCAASGFTFSDYTMAWVRQAPGKGLEWVATIIYSGRGTYYRDAVKGRFTISRDNSKSTLYLQMNSLRAEDTAVYYCARQSDHTYYYWGYFDYWGQGTMVTVSS
VL: DIVMTQSPDSLAVSLGERATINCKSSQSLLFSGNQKNYLAWYQQKPGQSPKLLIYWASTRQSGVPDRFSGSGSGTDFTLTIRSLQAEDVAIYYCQQYYDVPYTFGQGTKLEIK
- ka (human CD98 ECD): 53000 M⁻¹ s⁻¹
- kd (human CD98 ECD): 2.3e-05 s⁻¹
- ka [1]: 26000 M⁻¹ s⁻¹
- kd [1]: 2.6e-05 s⁻¹
- binding to human CD98 (human CD98): maintained binding
- Key observation for ADC solution during and after conjugation [2]: Precipitated during conjugation; inefficient conjugation

B2: huAb15v3 (antibody, V domains shown)
VH: EVQLVESGGGVVQPGRSLRLSCAASGFTFSDYTMAWVRQAPGKGLEWVATIIYSGRGTYYRDAVKGRFTISRDNSKSTLYLQMNSLRAEDTAVYYCARQSDDTYYYWGYFDYWGQGTMVTVSS
VL: DIVMTQSPDSLAVSLGERATINCKSSQSLLFSGNQKNYLAWYQQKPGQSPKLLIYWASTRQSGVPDRFSGSGSGTDFTLTIRSLQAEDVAIYYCQQYYGSPYTFGQGTKLEIK
- ka (human CD98 ECD): 44000 M⁻¹ s⁻¹
- kd (human CD98 ECD): 8.5e-05 s⁻¹
- ka [1]: 18000 M⁻¹ s⁻¹
- kd [1]: 0.00014 s⁻¹
- binding to human CD98 (human CD98): maintained binding
- DAR by MS [2]: 1.2
- Key observation for ADC solution during and after conjugation [2]: Precipitated during conjugation; inefficient conjugation

B3: huAb15v6 (antibody, V domains shown)
VH: EVQLVESGGGVVQPGRSLRLSCAASGFTFSDYTMAWVRQAPGKGLEWVATIIYDARGTYYRDAVKGRFTISRDNSKSTLYLQMNSLRAEDTAVYYCARQSDDTYYYWGYFDYWGQGTMVTVSS
VL: DIVMTQSPDSLAVSLGERATINCKSSQSLLFSGNQKNYLAWYQQKPGQSPKLLIYWASTRQSGVPDRFSGSGSGTDFTLTIRSLQAEDVAIYYCQQYYSSPYTFGQGTKLEIK
- ka (human CD98 ECD): 38000 M⁻¹ s⁻¹
- kd (human CD98 ECD): 0.00026 s⁻¹
- ka [1]: 14000 M⁻¹ s⁻¹
- kd [1]: 0.00049 s⁻¹
- binding to human CD98 (human CD98): maintained binding
- DAR by MS [2]: 2.0
- Key observation for ADC solution during and after conjugation [2]: Precipitated during conjugation; inefficient conjugation

B4: huAb15v4 (antibody, V domains shown)
VH: EVQLVESGGGVVQPGRSLRLSCAASGFTFSDYTMAWVRQAPGKGLEWVATIIYTGRGTYYRDAVKGRFTISRDNSKSTLYLQMNSLRAEDTAVYYCARQSDDTYYYWGYFDYWGQGTMVTVSS
VL: DIVMTQSPDSLAVSLGERATINCKSSQSLLFSGNQKNYLAWYQQKPGQSPKLLIYWASTRQSGVPDRFSGSGSGTDFTLTIRSLQAEDVAIYYCQQYYDVPYTFGQGTKLEIK
- ka (human CD98 ECD): 35000 M⁻¹ s⁻¹
- kd (human CD98 ECD): 2.8e-05 s⁻¹
- ka [1]: 20000 M⁻¹ s⁻¹
- kd [1]: 5e-05 s⁻¹
- binding to human CD98 (human CD98): maintained binding
- DAR by MS [2]: 1.9
- Key observation for ADC solution during and after conjugation [2]: Precipitated during conjugation; inefficient conjugation

B5: huAb15v2 (antibody, V domains shown)
VH: EVQLVESGGGVVQPGRSLRLSCAASGFTFSDYTMAWVRQAPGKGLEWVATIIYSGRGTYYRDAVKGRFTISRDNSKSTLYLQMNSLRAEDTAVYYCARQSDDTYYYWGYFDYWGQGTMVTVSS
VL: DIVMTQSPDSLAVSLGERATINCKSSQSLLFSGNQKNYLAWYQQKPGQSPKLLIYWASTRQSGVPDRFSGSGSGTDFTLTIRSLQAEDVAIYYCQQYYDVPYTFGQGTKLEIK
- ka (human CD98 ECD): 42000 M⁻¹ s⁻¹
- kd (human CD98 ECD): 4.6e-05 s⁻¹
- ka [1]: 21000 M⁻¹ s⁻¹
- kd [1]: 4.8e-05 s⁻¹
- binding to human CD98 (human CD98): maintained binding
- DAR by MS [2]: 2.1
- Key observation for ADC solution during and after conjugation [2]: Precipitated during conjugation; inefficient conjugation

B6: huAb15v7 (antibody, V domains shown)
VH: EVQLVESGGGVVQPGRSLRLSCAASGFTFSDYTMAWVRQAPGKGLEWVATIIYDARGTYYRDAVKGRFTISRDNSKSTLYLQMNSLRAEDTAVYYCARQSDDTYYYWGYFDYWGQGTMVTVSS
VL: DIVMTQSPDSLAVSLGERATINCKSSQSLLFSGNQKNYLAWYQQKPGQSPKLLIYWASTRQSGVPDRFSGSGSGTDFTLTIRSLQAEDVAIYYCQQYYGSPYTFGQGTKLEIK
- ka (human CD98 ECD): 35000 M⁻¹ s⁻¹
- kd (human CD98 ECD): 0.00021 s⁻¹
- ka [1]: 14000 M⁻¹ s⁻¹
- kd [1]: 0.00043 s⁻¹
- binding to human CD98 (human CD98): maintained binding
- DAR by MS [2]: 2.2
- Key observation for ADC solution during and after conjugation [2]: Precipitated during conjugation; inefficient conjugation

B7: huAb15v5 (antibody, V domains shown)
VH: EVQLVESGGGVVQPGRSLRLSCAASGFTFSDYTMAWVRQAPGKGLEWVATIIYTGRGTYYRDAVKGRFTISRDNSKSTLYLQMNSLRAEDTAVYYCARQSDDTYYYWGYFDYWGQGTMVTVSS
VL: DIVMTQSPDSLAVSLGERATINCKSSQSLLFSGNQKNYLAWYQQKPGQSPKLLIYWASTRQSGVPDRFSGSGSGTDFTLTIRSLQAEDVAIYYCQQYYSSPYTFGQGTKLEIK
- ka (human CD98 ECD): 41000 M⁻¹ s⁻¹
- kd (human CD98 ECD): 0.00013 s⁻¹
- ka [1]: 17000 M⁻¹ s⁻¹
- kd [1]: 0.00018 s⁻¹
- binding to human CD98 (human CD98): maintained binding
- DAR by MS [2]: 1.0
- Key observation for ADC solution during and after conjugation [2]: Precipitated during conjugation; inefficient conjugation
